What was measured:
CD8+ T cells = assay: In vitro T-cell priming with aAPCs loaded with peptide/MHC and anti-CD28, pMHC multimer readout (in vitro immunogenicity); assay type: cell-based, human; conditions: HLA-A*02, healthy donors
Description: In an aspect, the peptides are pre-screened for immunogenicity before being included in the warehouse. By way of example, and not limitation, the immunogenicity of the peptides included in the warehouse is determined by a method comprising in vitro T-cell priming through repeated stimulations of CD8+ T cells from healthy donors with artificial antigen presenting cells loaded with peptide/MHC complexes and anti-CD28 antibody.
In order to obtain information regarding the immunogenicity of the TUMAPs of the present invention, the inventors performed investigations using an in vitro T-cell priming assay based on repeated stimulations of CD8+ T cells with artificial antigen presenting cells (aAPCs) loaded with peptide/MHC complexes and anti-CD28 antibody.
In order to perform in vitro stimulations by artificial antigen presenting cells loaded with peptide-MHC complex (pMHC) and anti-CD28 antibody, the inventors first isolated CD8+ T cells from fresh HLA-A*02 leukapheresis products via positive selection using CD8 microbeads (Miltenyi Biotec, Bergisch-Gladbach, Germany) of healthy donors obtained from the University clinics Mannheim, Germany, after informed consent.
PBMCs and isolated CD8+ lymphocytes were incubated in T-cell medium (TCM) until use consisting of RPMI-Glutamax (Invitrogen, Karlsruhe, Germany) supplemented with 10% heat inactivated human AB serum (PAN-Biotech, Aidenbach, Germany), 100 U/ml Penicillin/100 μg/ml Streptomycin (Cambrex, Cologne, Germany), 1 mM sodium pyruvate (CC Pro, Oberdorla, Germany), 20 μg/ml Gentamycin (Cambrex). 2.5 ng/ml IL-7 (PromoCell, Heidelberg, Germany) and 10 U/ml IL-2 (Novartis Pharma, Nürnberg, Germany) were also added to the TCM at this step.
Generation of pMHC/anti-CD28 coated beads, T-cell stimulations and readout was performed in a highly defined in vitro system using four different pMHC molecules per stimulation condition and 8 different pMHC molecules per readout condition.
The purified co-stimulatory mouse IgG2a anti human CD28 Ab 9.3 (Jung et al., 1987) was chemically biotinylated using Sulfo-N-hydroxysuccinimidobiotin as recommended by the manufacturer (Perbio, Bonn, Germany). Beads used were 5.6 μm diameter streptavidin coated polystyrene particles (Bangs Laboratories, Illinois, USA).
pMHC used for positive and negative control stimulations were A*0201/MLA-001 (peptide […] (SEQ ID NO. 664) from modified Melan-A/MART-1) and A*0201/DDX5-001 ([…] from DDX5, SEQ ID NO. 665), respectively.
800.000 beads/200 μl were coated in 96-well plates in the presence of 4×12.5 ng different biotin-pMHC, washed and 600 ng biotin anti-CD28 were added subsequently in a volume of 200 μl. Stimulations were initiated in 96-well plates by co-incubating […] CD8+ T cells with 2×10^5 washed coated beads in 200 μl TCM supplemented with 5 ng/ml IL-12 (PromoCell) for 3 days at 37° C. Half of the medium was then exchanged by fresh TCM supplemented with 80 U/ml IL-2 and incubating was continued for 4 days at 37° C. This stimulation cycle was performed for a total of three times. For the pMHC multimer readout using 8 different pMHC molecules per condition, a two-dimensional combinatorial coding approach was used as previously described (Andersen et al., 2012) with minor modifications encompassing coupling to 5 different fluorochromes. Finally, multimeric analyses were performed by staining the cells with Live/dead near IR dye (Invitrogen, Karlsruhe, Germany), CD8-FITC antibody clone SK1 (BD, Heidelberg, Germany) and fluorescent pMHC multimers. For analysis, a BD LSRII SORP cytometer equipped with appropriate lasers and filters was used. Peptide specific cells were calculated as percentage of total CD8+ cells. Evaluation of multimeric analysis was done using the FlowJo software (Tree Star, Oregon, USA). In vitro priming of specific multimer+ CD8+ lymphocytes was detected by comparing to negative control stimulations. […]

HLA-A*02:01 = HLA-A*02:01 (Homo sapiens, UniProt P04439, D140Y/D185E/D98H/E176V/E277Q/G131W/G231S/I119V/I121R/I166T/I218V/L300P/L318F/N151K/N90K/P208A/P217A/Q86G/Q94H/R138H/R169H/T345S); assay: MHC binding assay: UV-ligand exchange with beta2m ELISA (peptide exchange yield); conditions: binding to HLA-A*02:01
Method in brief: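 Peptide-MHC complexes formed by UV-ligand exchange, a UV-cleavable peptide being replaced by the candidate peptide. Exchange products diluted 100-fold, captured on streptavidin-coated plates for 1h at 37° C, then detected with 2 ug/ml HRP anti-β2m (1h, 37° C) and TMB, absorbance 450 nm; value is exchange yield.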

| Peptide exchange (MHC class I binding score, peptide exchange yield) (HLA-A*02:01) | Substance | donors (percentage of positive donors) (CD8+ T cells) | wells (percentage of positive wells) (CD8+ T cells) |
| --- | --- | --- | --- |
| “+++” (≥50 = +++) | 614 (LLLPDQPPYHL; listed as Homo sapiens) [compound 614] |  |  |
| “++” (≥20% = ++) | 615 (VLPPDTDPA; listed as Homo sapiens) [compound 615] |  |  |
| “+++” (≥50 = +++) | 616 (VLIDEVESL; listed as Homo sapiens) [compound 616] |  |  |
| “+++” (≥50 = +++) | 617 (ALMYESEKVGV; listed as Homo sapiens) [compound 617] |  |  |
| “+++” (≥50 = +++) | 618 (VLFDSESIGIYV; listed as Homo sapiens) [compound 618] |  |  |
| “+++” (≥50 = +++) | 619 (ALQDRVPLA; listed as Homo sapiens) [compound 619] |  |  |
| “++++” (≥75% = ++++) | 620 (KLLNKIYEA; listed as Homo sapiens) [compound 620] |  |  |
| “++++” (≥75% = ++++) | 621 (VLMDRLPSLL; listed as Homo sapiens) [compound 621] |  |  |
| “+++” (≥50 = +++) | 622 (RLLGEEVVRVLQA; listed as Homo sapiens) [compound 622] |  |  |
| “+++” (≥50 = +++) | 623 (YLVEDIQHI; listed as Homo sapiens) [compound 623] |  |  |
| “+++” (≥50 = +++) | 635 (SLDSTLHAV; listed as Homo sapiens) [compound 635] |  |  |

The next lines start with the substance.

| Substance | Peptide exchange (MHC class I binding score, peptide exchange yield) (HLA-A*02:01) | donors (percentage of positive donors) (CD8+ T cells) | wells (percentage of positive wells) (CD8+ T cells) |
| --- | --- | --- | --- |
| 283 (ALYIGDGYVIHLA; listed as Homo sapiens) [compound 283] | “+++” (≥50 = +++) | +++ (50%-69% = +++) | + (<20% = +) |
| 595 (VLLSIYPRV; listed as Homo sapiens) [compound 595] | “+++” (≥50 = +++) |  |  |
| 596 (ALLDQTKTLAESAL; listed as Homo sapiens) [compound 596] | “+++” (≥50 = +++) |  |  |
| 597 (KLLEGQVIQL; listed as Homo sapiens) [compound 597] | “+++” (≥50 = +++) |  |  |
| 598 (FLFPHSVLV; listed as Homo sapiens) [compound 598] | “+++” (≥50 = +++) |  |  |
| 599 (YLLNDASLISV; listed as Homo sapiens) [compound 599] | “+++” (≥50 = +++) |  |  |
| 600 (ALAAPDIVPAL; listed as Homo sapiens) [compound 600] | “+++” (≥50 = +++) |  |  |
| 601 (SAFPFPVTV; listed as Homo sapiens) [compound 601] | “+++” (≥50 = +++) |  |  |
| 602 (YLLEQIKLIEV; listed as Homo sapiens) [compound 602] | “++++” (≥75% = ++++) |  |  |
| 603 (FLIEPEHVNTV; listed as Homo sapiens) [compound 603] | “++” (≥20% = ++) |  |  |
| 604 (SILDRDDIFV; listed as Homo sapiens) [compound 604] | “+++” (≥50 = +++) |  |  |
| 605 (KLYEAVPQL; listed as Homo sapiens) [compound 605] | “+++” (≥50 = +++) |  |  |
| 606 (ALWETEVYI; listed as Homo sapiens) [compound 606] | “+++” (≥50 = +++) |  |  |
| 607 (RLYSGISGLEL; listed as Homo sapiens) [compound 607] | “+++” (≥50 = +++) |  |  |
| 608 (SLLSVSHAL; listed as Homo sapiens) [compound 608] | “+++” (≥50 = +++) |  |  |
| 609 (ALWKQLLEL; listed as Homo sapiens) [compound 609] | “+++” (≥50 = +++) |  |  |
| 610 (LLAPTPYIIGV; listed as Homo sapiens) [compound 610] | “+++” (≥50 = +++) |  |  |
| 611 (YLLDDGTLVV; listed as Homo sapiens) [compound 611] | “++++” (≥75% = ++++) |  |  |
| 612 (YLYNEGLSV; listed as Homo sapiens) [compound 612] | “+++” (≥50 = +++) |  |  |
| 613 (RLLPPGAVVAV; listed as Homo sapiens) [compound 613] | “+++” (≥50 = +++) |  |  |
| 648 (LLWGNAIFL; listed as Homo sapiens) [compound 648] |  | +++ (50%-69% = +++) | ++ (20%-49% = ++) |
| 652 (TLWYRAPEV; listed as Homo sapiens) [compound 652] |  | ++++ (> = 70% = ++++) | +++ (50%-69% = +++) |
| 659 (ILFPDIIARA; listed as Homo sapiens) [compound 659] |  | +++ (50%-69% = +++) | + (<20% = +) |
| 662 (KIQEILTQV; listed as Homo sapiens) [compound 662] |  | +++ (50%-69% = +++) | + (<20% = +) |
| 663 (KIQEMQHFL; listed as Homo sapiens) [compound 663] |  | +++ (50%-69% = +++) | + (<20% = +) |
